± gives the standard deviation of the averaged measurements.
Key:
Saccharomyces cerevisiae [1] = test: protein stability index of tFT-peptide fusion (C-terminal peptide) (PSI (0-1 scale)); higher = more stable (slower turnover)
Experimental: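 MPS profiling in S. cerevisiae of the tFT-X12 degron library: putative degron peptides plus stable controls, 12 aa, fused to the C-terminus of a sfGFP-mCherry timer. Cells are FACS-sorted into 8 mCherry/sfGFP bins and deep-sequenced. PSI runs from 0 (unstable) to 1 (stable). Backgrounds are wild type, das1Δ and doa10Δ at 30 °C, and wild type, das1Δ, cdc34-1 and cdc53-1 at 37 °C; 2-3 technical replicates each.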

Saccharomyces cerevisiae [2] = test: as above; conditions: genetic background: wild type; temperature: 30 C
[3] = genetic background: cdc34-1, temperature: 37 C
[4] = genetic background: cdc53-1, temperature: 37 C
[5] = genetic background: das1 deletion, temperature: 30 C
[6] = genetic background: das1 deletion, temperature: 37 C
[7] = genetic background: doa10 deletion, temperature: 30 C
[8] = genetic background: wild type, temperature: 30 C
[9] = genetic background: wild type, temperature: 37 C
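Further: PSI is a weighted mean of sequencing reads over stability bins, variants kept only with over 10 reads, mCherry proximal and sfGFP distal, peptide attached via GGGS linker.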

Sequence	protein stability index (Saccharomyces cerevisiae [1]; [3])	protein stability index (Saccharomyces cerevisiae [1]; [4])	protein stability index (Saccharomyces cerevisiae [1]; [5])	protein stability index (Saccharomyces cerevisiae [1]; [6])	protein stability index (Saccharomyces cerevisiae [1]; [7])	protein stability index (Saccharomyces cerevisiae [1]; [8])	protein stability index (Saccharomyces cerevisiae [1]; [9])	protein stability index (Saccharomyces cerevisiae [2])
HSPRVLLPLYFR	0.199 ± 0.064	0.133 ± 0.013	0.301 ± 0.035	0.365 ± 0.033	0.672 ± 0.02	0.278 ± 0.037	0.328 ± 0.021	0.378 ± 0.086
ICFPLQIFRILV	0.408 ± 0.013	0.46 ± 0.019	0.348 ± 0.021	0.4919 ± 0.0042	0.211 ± 0.014	0.246 ± 0.019	0.345 ± 0.006	0.3549 ± 0.0027
IEVGVAILLLGE	0.646 ± 0.042	0.668 ± 0.0081	0.551 ± 0.03	0.6842 ± 0.0029	0.5066 ± 0.0028	0.529 ± 0.01	0.6791 ± 0.0027	0.514 ± 0.12
IFFSLFFFFLCN	0.353 ± 0.06	0.413 ± 0.0066	0.356 ± 0.027	0.526 ± 0.068	0.35 ± 0.03	0.289 ± 0.011	0.4212 ± 0.0014	0.35 ± 0.056
IGLSIWSVVSAL	0.652 ± 0.042	0.689 ± 0.015	0.535 ± 0.016	0.6826 ± 0.0014	0.253 ± 0.0069	0.286 ± 0.033	0.5056 ± 0.0043	0.392 ± 0.024
IILGVRQIEVNS	0.488 ± 0.012	0.517 ± 0.031	0.358 ± 0.029	0.526 ± 0.021	0.323 ± 0.0071	0.373 ± 0.031	0.52 ± 0.0076	0.4447 ± 0.0033
IKSIKQNKIKTI	0.619 ± 0.051	0.648 ± 0.021	0.653 ± 0.029	0.699 ± 0.026	0.186 ± 0.013	0.171 ± 0.079	0.246 ± 0.032	0.292 ± 0.008
IKTKGRYKKQRT	0.632 ± 0.051	0.709 ± 0.01	0.679 ± 0.049	0.743 ± 0.037	0.34 ± 0.018	0.376 ± 0.058	0.572 ± 0.045	0.408 ± 0.014
ILFIVSSCGCVG	0.543 ± 0.031	0.557 ± 0.039	0.445 ± 0.037	0.5904 ± 0.0013	0.443 ± 0.024	0.446 ± 0.015	0.5724 ± 0.0043	0.471 ± 0.0064
ILISVNRVVLYC	0.364 ± 0.016	0.4123 ± 0.0011	0.289 ± 0.027	0.461 ± 0.011	0.115 ± 0.014	0.14 ± 0.017	0.1901 ± 0.00075	0.2171 ± 0.00013
ILRKTAFRLRVL	0.623 ± 0.047	0.635 ± 0.0073	0.525 ± 0.011	0.658 ± 0.023	0.228 ± 0.016	0.264 ± 0.024	0.376 ± 0.01	0.397 ± 0.025
IMWCSSVSEVQW	0.538 ± 0.075	0.582 ± 0.0064	0.472 ± 0.027	0.518 ± 0.0069	0.492 ± 0.03	0.494 ± 0.047	0.5016 ± 0.0029	0.4741 ± 0.0032
IPFRRCFWFFWV	0.537 ± 0.029	0.7 ± 0.011	0.593 ± 0.035	0.6909 ± 0.0044	0.143 ± 0.014	0.167 ± 0.024	0.204 ± 0.027	0.2345 ± 0.0012
ISSYKFLRIVLV	0.384 ± 0.01	0.435 ± 0.0053	0.335 ± 0.026	0.509 ± 0.022	0.131 ± 0.031	0.149 ± 0.032	0.191 ± 0.0035	0.189 ± 0.0046
ISVSFSVIFFLL	0.266 ± 0.0073	0.398 ± 0.019	0.372 ± 0.019	0.4778 ± 0.0024	0.0751 ± 0.0046	0.0951 ± 0.01	0.137 ± 0.002	0.154 ± 0.044
IWIRLGSENTVI	0.7085 ± 0.0014	0.7221 ± 0.007	0.646 ± 0.036	0.7489 ± 0.00087	0.672 ± 0.026	0.653 ± 0.032	0.78 ± 0.015	0.443 ± 0.22
IWWFKELRVCRV	0.506 ± 0.014	0.559 ± 0.013	0.435 ± 0.022	0.5589 ± 0.0019	0.4128 ± 0.0013	0.424 ± 0.024	0.539 ± 0.017	0.49 ± 0.013
IYFFFFALHFPN	0.498 ± 0.083	0.521 ± 0.013	0.366 ± 0.054	0.535 ± 0.029	0.388 ± 0.019	0.407 ± 0.025	0.544 ± 0.047	0.524 ± 0.067
KAIILGNIKINF	0.729 ± 0.018	0.744 ± 0.016	0.6368 ± 0.0023	0.714 ± 0.011	0.638 ± 0.026	0.624 ± 0.018	0.741 ± 0.045	0.539 ± 0.16
KALFPGLLLCAF	0.168 ± 0.0027	0.188 ± 0.0038	0.239 ± 0.02	0.292 ± 0.012	0.204 ± 0.0091	0.232 ± 0.022	0.268 ± 0.017	0.307 ± 0.014
KLLDHFVKIRVY	0.164 ± 0.021	0.2 ± 0.0077	0.225 ± 0.044	0.416 ± 0.0072	0.0632 ± 0.0066	0.0674 ± 0.024	0.0534 ± 0.03	0.0988 ± 0.0069
KLRELQVRQQLS	0.648 ± 0.1	0.677 ± 0.015	0.635 ± 0.03	0.7272 ± 0.0049	0.189 ± 0.021	0.199 ± 0.025	0.413 ± 0.017	0.382 ± 0.02
LAEHIFLVLDHG	0.451 ± 0.026	0.485 ± 0.013	0.428 ± 0.0085	0.499 ± 0.0062	0.463 ± 0.024	0.432 ± 0.0071	0.478 ± 0.0089	0.453 ± 0.013
LAISTIQMFKRI	0.677 ± 0.049	0.718 ± 0.04	0.624 ± 0.017	0.718 ± 0.018	0.295 ± 0.021	0.327 ± 0.022	0.568 ± 0.038	0.38 ± 0.019
LAKPTVRKIICV	0.41 ± 0.0086	0.387 ± 0.025	0.301 ± 0.049	0.4672 ± 0.0038	0.263 ± 0.017	0.296 ± 0.04	0.421 ± 0.0089	0.419 ± 0.007
LAPSRNRSVWLV	0.591 ± 0.015	0.7308 ± 0.002	0.649 ± 0.016	0.74 ± 0.0098	0.104 ± 0.012	0.119 ± 0.018	0.199 ± 0.0086	0.247 ± 0.036
LASFCSVCIFIS	0.224 ± 0.0054	0.31 ± 0.014	0.238 ± 0.017	0.429 ± 0.0071	0.099 ± 0.0025	0.127 ± 0.033	0.17 ± 0.012	0.163 ± 0.029
LASWVVFIWFLW	0.253 ± 0.026	0.348 ± 0.012	0.278 ± 0.018	0.41 ± 0.01	0.281 ± 0.031	0.25 ± 0.043	0.423 ± 0.041	0.329 ± 0.077
LCFLVALASMLF	0.5426 ± 0.0019	0.579 ± 0.038	0.472 ± 0.036	0.549 ± 0.018	0.4385 ± 0.0032	0.462 ± 0.026	0.5246 ± 0.00074	0.504 ± 0.01
LCFVCLWGYLGV	0.388 ± 0.023	0.471 ± 0.011	0.322 ± 0.034	0.528 ± 0.023	0.307 ± 0.0054	0.323 ± 0.022	0.4791 ± 0.0038	0.479 ± 0.044

Source: the supplement of paper PMC10724198
